Here are results for 57 variants from the RNAGym collection of RNA variant scans (doi:10.7554/elife.80360).

First the molecules themselves.
B1: Hammerhead Ribozyme (parent)
chain: ACCGGAUGUGCUUUCCGGUCUGAUGAGUCCGUGAGGACGAAACAG

Variants of B1 are the subject of this series. The experiment in a line: self-cleavage, relative activity (ratio to wild type); higher = more cleavage; co-transcriptional.
As to ACCGGAUUUGCUUGCCGGUCUGAUGAGUCCGUGAGGACGAAACAG [G8U U14G], the self-cleavage came out at 0.94.
Turning to ACCGGAUGUGCUUUCCGAUCUGAUGAGUUCGUGAGGACGAAACAG [G18A C29U], the self-cleavage was 0.574.
As for ACCGGAGGUGCUUUCCCGUCUGAUGAGUCCGUGAGGACGAAACAG [U7G G17C], the self-cleavage stood at 0.552.
Then ACCGGAUGUGCUAUCCGGUCUGAUGAGUCCGUGAUGACGAAACAG [U13A G35U], with 0.727.
In the case of ACCGGAUGUGCUUUCCGGUUUGAUGAGUGCGUGAGGACGAAACAG [C20U C29G] it was 0.378; in that of UCCGGAUGUGCUAUCCGGUCUGAUGAGUCCGUGAGGACGAAACAG [A1U U13A], 1.02; in that of ACCGGCUGUGCUUUCCGGUCGGAUGAGUCCGUGAGGACGAAACAG [A6C U21G], 0.415.
Consider ACCGGAUGUGCUUUCCGGUCUGAAGUGUCCGUGAGGACGAAACAG [U24A A26U], for which the self-cleavage is 0.756.
In the case of ACCGGAUGUGCUUACCGGUCUGAUGAGUCCAUGAGGACGAAACAG [U14A G31A] it was 0.81.
Then ACCGGAUGUGCUUUCCGGUCUUAUGAGUCCGUGAAGACGAAACAG [G22U G35A], with 0.335.
Consider ACUGGAUGUGCUUUCCGGUCUGAUGAGUCCGUGAGGACGAGACAG [C3U A41G], for which the self-cleavage was determined as 0.354.
In the case of ACCGGAUGUGCUUUCCGGUCUGAUCGGUCCGUGAGGACGAAACAG [G25C A26G] it was 0.265; in that of ACCGGCUGUGCUUUCCGGUCUGAUAAGUCCGUGAGGACGAAACAG [A6C G25A], 0.286; in that of ACCAGAUGUGCUUUCCGGUCUGAUGAGUCCGUCAGGACGAAACAG [G4A G33C], 0.549.
Then AUCGGAUGUGCUUUCCGGUCUCAUGAGUCCGUGAGGACGAAACAG [C2U G22C], with 0.323; and ACCCAAUGUGCUUUCCGGUCUGAUGAGUCCGUGAGGACGAAACAG [G4C G5A], with 0.365; and ACCGGAAGUGUUUUCCGGUCUGAUGAGUCCGUGAGGACGAAACAG [U7A C11U], with 1.4.
As for ACCCGAUGUGCUUACCGGUCUGAUGAGUCCGUGAGGACGAAACAG [G4C U14A], the self-cleavage stood at 0.512.
Then ACAGGAUGUGCUUUCCGGUCUGAUGAGUCCGUGAUGACGAAACAG [C3A G35U], with 0.369; and ACCGGAUGUGCUUUCGGAUCUGAUGAGUCCGUGAGGACGAAACAG [C16G G18A], with 0.533; and ACCGGAUGUGCUUUCCGGUCUGAUGAGCCCGUGAUGACGAAACAG [U28C G35U], with 0.431.
Turning to ACCGGAUGUGCUUUCCGGUCUGAUGAGUCCGCGAGGAGGAAACAG [U32C C38G], the self-cleavage was determined as 0.691.
ACCGGAUGGGCAUUCCGGUCUGAUGAGUCCGUGAGGACGAAACAG [U9G U12A]: the self-cleavage stood at 1.04.
For the variant ACCGGAUGUGCUUUCCGGUCUGAUGAAUCCGUGAGGACGAAACAG [G27A], the self-cleavage came out at 0.897.
In the case of ACUGGAUGUGCUUUCCGGUCUGAUGAGUCCGUGAGGACGAAAUAG [C3U C43U] it was 0.492; in that of ACCGGAUGUGCUUUCCGCUCUGAUGAGUCCGUGAGGAUGAAACAG [G18C C38U], 0.453; in that of ACCGGAUGUGCUUUCCGGUCUGAUGAGUCCGUGUGGAAGAAACAG [A34U C38A], 0.409.
Consider ACCGGAUGUGCUUUCCGGUCUGAUGACUCAGUGAGGACGAAACAG [G27C C30A], for which the self-cleavage was determined as 0.401.
Then ACCGGAUGUGCUUUCCGGUCCGAUGAGUCCGUGAGGACGAAGCAG [U21C A42G], with 0.323.
In the case of ACCGGAUGUGCUUUCCGGUCUGAUCAGUCCGUCAGGACGAAACAG [G25C G33C], the self-cleavage is 0.272.
In the case of ACCGGAGGUGCUUUCCGGUCUGAUGAGUCCGUGAGGCCGAAACAG [U7G A37C] it was 1.29; in that of ACCGGAUAUGCUUUCCGGUUUGAUGAGUCCGUGAGGACGAAACAG [G8A C20U], 0.594; in that of ACCGGAUGUGCUUUCCGGUCUGAUGAGUCAGCGAGGACGAAACAG [C30A U32C], 0.879.
As to ACCGGAUGUGCUUUCCGGUAUGAUGAGUCCGAGAGGACGAAACAG [C20A U32A], the self-cleavage stood at 0.471.
Turning to ACCGGAUGUGCUUACCGGUCUGAUGAGUCCGUGAGGACGAAGCAG [U14A A42G], the self-cleavage stood at 0.279.
Then CCCGGAUGUGGUUUCCGGUCUGAUGAGUCCGUGAGGACGAAACAG [A1C C11G], with 0.395; and ACCGGAUGUGCUUUCCGGUCUGAUGAGUCCGUGAGGACGAGAGAG [A41G C43G], with 0.346.
Take ACCGGAUGUGCUUUCCGGUCAGAUGAGUCCCUGAGGACGAAACAG [U21A G31C]: the self-cleavage turned out to be 0.532.
Consider ACCGGAUGUGCUUUCCGGCCUGAUGAGUCCGUGAGGCCGAAACAG [U19C A37C], for which the self-cleavage came out at 0.668.
On to ACCGGAUGUGCUUUCCGGCCUGAUGAGUCCGUGAGGGCGAAACAG [U19C A37G], for which the self-cleavage amounted to 0.41.
On to ACCGGAUGUGCUUUACGGUCAGAUGAGUCCGUGAGGACGAAACAG [C15A U21A], for which the self-cleavage is 0.415.
Then ACCGGAUGUGCUUUCCGGGCUGAGGAGUCCGUGAGGACGAAACAG [U19G U24G], with 0.323; and ACCGGAUGUGCUUUCCGGUCUGAUGAGUCCGUGAGCACGAAACAA [G36C G45A], with 0.374.
ACCGGAUCUGCUUUACGGUCUGAUGAGUCCGUGAGGACGAAACAG [G8C C15A]: the self-cleavage was 0.837.
On to ACCGGAUGUGCUUCCCGGUCUGAUGAGUCCGUGAGGACGAAGCAG [U14C A42G], for which the self-cleavage came to 0.249.
Then ACCGGAUGUGCUUUCGGGUCUGAUGAGUCCUUGAGGACGAAACAG [C16G G31U], with 1.05; and ACCGGGUGUGCUUUCCGGUCUGAUGAGUCCGUGAGGACGAAAGAG [A6G C43G], with 0.284.
Turning to ACCGGAUGUGCUUUCCGGUCUGAUUAGUCCGUGCGGACGAAACAG [G25U A34C], the self-cleavage was found to be 0.317.
Then AACGGACGUGCUUUCCGGUCUGAUGAGUCCGUGAGGACGAAACAG [C2A U7C], with 0.382.
As to AACGGAUGUGCUUUGCGGUCUGAUGAGUCCGUGAGGACGAAACAG [C2A C15G], the self-cleavage was determined as 0.319.
As for UCCGGAUGUGCUUUACGGUCUGAUGAGUCCGUGAGGACGAAACAG [A1U C15A], the self-cleavage was found to be 0.373.
In the case of ACCGGAUGUGCUGUCCGGUCUGAUGAGUCCGUGAGGACGAAGCAG [U13G A42G] it was 0.316; in that of ACCGGAUGAGCUUUCCGGUCUGAUGAGUCCGUGAGGACUAAACAG [U9A G39U], 0.422.
With ACGGGAUGUGCUUUCCGGUCUGAUGAGUCCGUGAGGACGACACAG [C3G A41C], the self-cleavage was 0.299.
For ACCGGAUGUGCUUUCCGAUCUGAGGAGUCCGUGAGGACGAAACAG [G18A U24G], the self-cleavage came to 0.678.
Then ACCGCAUGUGCUUUCCGGUCUGGUGAGUCCGUGAGGACGAAACAG [G5C A23G], with 0.324; and ACCGGAUGUGCUUUCCGUUCUGAUGAGUACGUGAGGACGAAACAG [G18U C29A], with 0.538.
